This passage reports optical density results from patent US20210380703A1 (RIGEL PHARMACEUTICALS, published 2021).

Experiment [1] deals with T1, biotinylated goat anti-human kappa light chain.
T1 construct: positive control of the ELISA
Put plainly: ELISA, positive control. Summed up:
(§1)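 mAb binding by ELISA; antigens: hu ACVR2A, mu ACVR2A; pos ctrl biotinylated goat anti-hu kappa LC; neg ctrl hu Fc.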

The target of experiment [2] is T2, mouse ACVR2A (mouse, UniProt P27038 20-135, limits assumed).
T2 construct: coated antigen of the initial ELISA
T2 sequence (P27038 20-135 limits assumed): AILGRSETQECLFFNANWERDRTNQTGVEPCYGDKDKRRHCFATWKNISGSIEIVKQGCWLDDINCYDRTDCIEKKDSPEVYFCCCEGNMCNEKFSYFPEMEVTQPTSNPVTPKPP
Nature of the experiment: ELISA. Summed up:
as §1
Background: In an ELISA, binding on a coated surface is turned into a signal by an enzyme label.

In experiment [3] the target is T3, human ACVR2A (human, UniProt P27037 20-135, limits assumed).
T3 construct: coated antigen of the initial ELISA; also called activin receptor, type II A
T3 sequence (P27037 20-135 limits assumed): as the sequence (P27038 20-135 limits assumed) above, with R20K, I73V counted along it
Put plainly: ELISA. In short, it runs like this: as §1
Also: test concentration or dose not given here.

B1: 373_A05 (antibody, V domains shown)
VH: EVQLLESGGGLVQPGGSLRLSCAASGFTFSDYSMNWVRQAPGKGLEWVSGINYNSGYKSYADSVKGRFTISRDNSKNTLYLQMNSLRAEDTAVYYCARGANWHDTHLDYWGQGTLVTVSS
VL: DIQMTQSPSSLSASVGDRVTITCRASQSILSYVNWYQQKPGKAPKLVIYAATSRHSGVPSRFSGSGSGTDFTLTISSLQPEDFATYYCQQSYESPLTFGGGTKVEIK
notes: Group III
For the molecule B1, the optical density in experiment [1] came out at 3.03 OD; in experiment [2] it was 3.42 OD; in experiment [3] it was 3.45 OD.

B2: 373_A12 (antibody, V domains shown)
VH: EVQLLESGGGLVQPGGSLRLSCAASGFTFSSYSMNWVRQAPGKGLEWVSSINYNGGYTSYADSVKGRFTISRDNSKNTLYLQMNSLRAEDTAVYYCARGANWHDTALDYWGQGTLVTVSS
VL: DIQMTQSPSSLSASVGDRVTITCRASQSILTYLNWYQQKPGKAPKLVIYAATSRASGVPSRFSGSGSGTDFTLTISSLQPEDFATYYCQQSYDTPLTFGGGTKVEIK
notes: Group III
For the molecule B2, the optical density in experiment [1] worked out at 3.09 OD; in experiment [2] it was 3.31 OD; in experiment [3] it was 3.59 OD.

B3: 373_G08 (antibody, V domains shown)
VH: EVQLLESGGGLVQPGGSLRLSCAASGFTFDSYSMNWVRQAPGKGLEWVSNINYNGGYTSYADSVKGRFTISRDNSKNTLYLQMNSLRAEDTAVYYCARGANWHDTALDYWGQGTLVTVSS
VL: DIQMTQSPSSLSASVGDRVTITCRASQSILTYLNWYQQKPGKAPKLLIYAATSLASGVPSRFSGSGSGTDFTLTISSLQPEDFATYYCQQSYDSPLTFGGGTKVEIK
notes: Group III
Turning to B3, the optical density in experiment [1] is 3.28 OD; in experiment [2] it was 3.67 OD; in experiment [3] it was 3.65 OD.

B4: 373_F11 (antibody, V domains shown)
VH: EVQLLESGGGLVQPGGSLRLSCAASGFTFDSYGMHWVRQAPGKGLEWVSGINYNSGYTSYADSVKGRFTISRDNSKNTLYLQMNSLRAEDTAVYYCARGANWHDTHLDYWGQGTLVTVSS
VL: DIQMTQSPSSLSASVGDRVTITCRASQSIVSYVNWYQQKPGKAPKLLIYAATSRASGVPSRFSGSGSGTDFTLTISSLQPEDFATYYCQQSYNLPLTFGGGTKVEIK
notes: Group III
Consider B4, for which the values for the optical density in experiment [1], in experiment [2] and in experiment [3] were 3.32 OD, 3.46 OD and 3.35 OD, respectively.

B5: 373_C03 (antibody, V domains shown)
VH: EVQLLESGGGLVQPGGSLRLSCAASGFTFSSYSMNWVRQAPGKGLEWVSGINYNGGYKSYADSVKGRFTISRDNSKNTLYLQMNSLRAEDTAVYYCARGANWHDTALDYWGQGTLVTVSS
VL: DIQMTQSPSSLSASVGDRVTITCRASQSIVTYLNWYQQKPGKAPKLVIYAATSRASGVPSRFSGSGSGTDFTLTISSLQPEDFATYYCQQSYDSPLTFGGGTKVEIK
notes: Group III
B5: the optical density in experiment [1] came out at 3.3 OD; in experiment [2], 3.65 OD; in experiment [3], 3.69 OD.

B6: 373_F12 (antibody, V domains shown)
VH: EVQLLESGGGLVQPGGSLRLSCAASGFTFSSYSMNWVRQAPGKGLEWVSNINYNGGYTGYADSVKGRFTISRDNSKNTLYLQMNSLRAEDTAVYYCARGANWHDTALDYWGQGTLVTVSS
VL: DIQMTQSPSSLSASVGDRVTITCRASQSISTYLNWYQQKPGKAPKLVIYAATSRASGVPSRFSGSGSGTDFTLTISSLQPEDFATYYCQQSYETPLTFGGGTKVEIK
notes: Group III
For B6, the optical density in experiment [1] turned out to be 3.06 OD; in experiment [2], 3.22 OD; in experiment [3], 3.25 OD.

B7: 373_H03 (antibody, V domains shown)
VH: EVQLLESGGGLVQPGGSLRLSCAASGFTFSSYSMNWVRQAPGKGLEWVSGINYNSGYKSYADSVKGRFTISRDNSKNTLYLQMNSLRAEDTAVYYCARGANWHDTALDYWGQGTLVTVSS
VL: DIQMTQSPSSLSASVGDRVTITCRASQSILSYLNWYQQKPGKAPKLLIYATTSRASGVPSRFSGSGSGTDFTLTISSLQPEDFATYYCQQSYENPLTFGGGTKVEIK
notes: Group III
Turning to B7, the optical density was determined as 3.22 OD in experiment [1], 3.29 OD in experiment [2] and 3.27 OD in experiment [3].

B8: 373_C10 (antibody, V domains shown)
VH: EVQLLESGGGLVQPGGSLRLSCAASGFTFSSYSMNWVRQAPGKGLEWVAGINYNGGYTSYADSVKGRFTISRDNSKNTLYLQMNSLRAEDTAVYYCARGANWHDTALDYWGQGTLVTVSS
VL: DIQMTQSPSSLSASVGDRVTITCRASQSILTYVNWYQQKPGKAPKLLIYAATSRASGVPSRFSGSGSGTDFTLTISSLQPEDFATYYCQQSYDNPLTFGGGTKVEIK
notes: Group III
Take B8: the optical density amounted to 3.23 OD in experiment [1], 3.65 OD in experiment [2] and 3.65 OD in experiment [3].

B9: 373_A09 (antibody, V domains shown)
VH: EVQLLESGGGLVQPGGSLRLSCAASGFTFDSYSMNWVRQAPGKGLEWVAGINYNGGYTSYADSVKGRFTISRDNSKNTLYLQMNSLRAEDTAVYYCARGANWHDTALDYWGQGTLVTVSS
VL: DIQMTQSPSSLSASVGDRVTITCRASQSILTYLNWYQQKPGKAPKLLIYAATSLASGVPSRFSGSGSGTDFTLTISSLQPEDFATYYCQQSYDTPLTFGGGTKVEIK
notes: Group III
B9: the results for the optical density in experiment [1], in experiment [2] and in experiment [3] were 3.11 OD, 3.62 OD and 3.66 OD, respectively.

B10: 373_B05 (antibody, V domains shown)
VH: EVQLLESGGGLVQPGGSLRLSCAASGFTFSDYSMNWVRQAPGKGLEWVSNINYNGGYKSYADSVKGRFTISRDNSKNTLYLQMNSLRAEDTAVYYCARGANWHDTALDYWGQGTLVTVSS
VL: DIQMTQSPSSLSASVGDRVTITCRASQSIVTYLNWYQQKPGKAPKLVIYAATSRASGVPSRFSGSGSGTDFTLTISSLQPEDFATYYCQQSYSNPLTFGGGTKVEIK
notes: Group III
B10: the figures for the optical density in experiment [1], in experiment [2] and in experiment [3] were 3.23 OD, 3.53 OD and 3.59 OD, respectively.

B11: 373_B07 (antibody, V domains shown)
VH: EVQLLESGGGLVQPGGSLRLSCAASGFTFDSYSMNWVRQAPGKGLEWVSGINYNGGYTSYADSVKGRFTISRDNSKNTLYLQMNSLRAEDTAVYYCARGANWHDTALDYWGQGTLVTVSS
VL: DIQMTQSPSSLSASVGDRVTITCRASQSILTYVNWYQQKPGKAPKLVIYAATSRASGVPSRFSGSGSGTDFTLTISSLQPEDFATYYCQQSYELPLTFGGGTKVEIK
notes: Group III
B11: the optical density in experiment [1] turned out to be 3.3 OD; in experiment [2], 3.61 OD; in experiment [3], 3.66 OD.

B12: 373_D12 (antibody, V domains shown)
VH: EVQLLESGGGLVQPGGSLRLSCAASGFTFDSYSMNWVRQAPGKGLEWVSSINYNSGYKGYADSVKGRFTISRDNSKNTLYLQMNSLRAEDTAVYYCARGANWHDTHLDYWGQGTLVTVSS
VL: DIQMTQSPSSLSASVGDRVTITCRASQSILSYVNWYQQKPGKAPKLLIYAATSRASGVPSRFSGSGSGTDFTLTISSLQPEDFATYYCQQSYSLPLTFGGGTKVEIK
notes: Group III
With B12, the optical density in experiment [1] came to 3.21 OD; in experiment [2], 3.21 OD; in experiment [3], 3.4 OD.

B13: 373_C07 (antibody, V domains shown)
VH: EVQLLESGGGLVQPGGSLRLSCAASGFTFDSYSMNWVRQAPGKGLEWVAGINYNSGYTSYADSVKGRFTISRDNSKNTLYLQMNSLRAEDTAVYYCARGANWHDTHLDYWGQGTLVTVSS
VL: DIQMTQSPSSLSASVGDRVTITCRASQSILTYLNWYQQKPGKAPKLVIYAATSRASGVPSRFSGSGSGTDFTLTISSLQPEDFATYYCQQSYETPLTFGGGTKVEIK
notes: Group III
Regarding B13, the optical density in experiment [1] is 3.3 OD; in experiment [2] it was 3.58 OD; in experiment [3], 3.57 OD.

B14: 373_F08 (antibody, V domains shown)
VH: EVQLLESGGGLVQPGGSLRLSCAASGFTFSSYSMNWVRQAPGKGLEWVSGINYNGGYTSYADSVKGRFTISRDNSKNTLYLQMNSLRAEDTAVYYCARGANWHDTALDYWGQGTLVTVSS
VL: DIQMTQSPSSLSASVGDRVTITCRASQSILTYLNWYQQKPGKAPKLLIYAATSRASGVPSRFSGSGSGTDFTLTISSLQPEDFATYYCQQSYDTPLTFGGGTKVEIK
notes: Group III
Turning to B14, the optical density stood at 3.21 OD in experiment [1], 3.7 OD in experiment [2] and 3.76 OD in experiment [3].

B15: 373_D03 (antibody, V domains shown)
VH: EVQLLESGGGLVQPGGSLRLSCAASGFTFSSYSMNWVRQAPGKGLEWVSGINYNGGYTSYADSVKGRFTISRDNSKNTLYLQMNSLRAEDTAVYYCARGANWHDTALDYWGQGTLVTVSS
VL: DIQMTQSPSSLSASVGDRVTITCRASQSIVSYLNWYQQKPGKAPKLLIYAATSLASGVPSRFSGSGSGTDFTLTISSLQPEDFATYYCQQSYDTPLTFGGGTKVEIK
notes: Group III
As for B15, the optical density turned out to be 3.18 OD in experiment [1], 3.69 OD in experiment [2] and 3.75 OD in experiment [3].

B16: 373_A11 (antibody, V domains shown)
VH: EVQLLESGGGLVQPGGSLRLSCAASGFTFSNYGMNWVRQAPGKGLEWVANINYNGGYTGYADSVKGRFTISRDNSKNTLYLQMNSLRAEDTAVYYCARGANWHDTALDYWGQGTLVTVSS
VL: DIQMTQSPSSLSASVGDRVTITCRASQSILTYLNWYQQKPGKAPKLLIYAATSRASGVPSRFSGSGSGTDFTLTISSLQPEDFATYYCQQSYDLPLTFGGGTKVEIK
notes: Group III
With B16, the optical density in experiment [1] is 3.09 OD; in experiment [2], 3.68 OD; in experiment [3], 3.76 OD.

B17: 373_E10 (antibody, V domains shown)
VH: EVQLLESGGGLVQPGGSLRLSCAASGFTFSDYSMNWVRQAPGKGLEWVSGINYNGGYTSYADSVKGRFTISRDNSKNTLYLQMNSLRAEDTAVYYCARGANWHDTALDYWGQGTLVTVSS
VL: DIQMTQSPSSLSASVGDRVTITCRASQSILTYVNWYQQKPGKAPKLVIYAATSRHSGVPSRFSGSGSGTDFTLTISSLQPEDFATYYCQQSYETPLTFGGGTKVEIK
notes: Group III
For the molecule B17, the optical density in experiment [1] was found to be 3.2 OD; in experiment [2], 3.64 OD; in experiment [3] it was 3.72 OD.
